From patent US20230151434A1, “REAWAKENING OF DORMANT TUMOR CELLS BY MODIFIED LIPIDS DERIVED FROM STRESS ACTIVATED NEUTROPHILS” (The Wistar Institute of Anatomy and Biology, priority 2020, published 2023) come the findings set out here.

Common to all, as to assay type: cell-based, mouse
In data set [1] the test system is PMN. As to the kind of experiment: qRT-PCR of Ptges, Ptgs2 and Arg1 in PMN. As to the method: RNA from tumor cells or PMN was extracted from snap-frozen pellets with Quick-RNA Microprep or Quick-RNA Miniprep (Zymo Research) per the manufacturer's instructions. cDNA was prepared with a High-Capacity cDNA Reverse Transcription Kit with RNase Inhibitor (Thermo Fisher Scientific) per the manufacturer's instructions. qRT-PCR was performed in an ABI QuantStudio 5 Rm 422 machine (Applied Biosystems).

The next data set relates to MPO. Put plainly: MPO activity in neutrophils. As to conditions: S100A8/A9 5 μg/ml or LPS 2 μg/ml. As to the method:
Neutrophils were isolated from tumor-free mice as described above, and MPO activity was measured with an MPO Fluorometric Activity Assay Kit (Sigma-Aldrich) using a VICTOR spectrophotometer (PerkinElmer).

For data set [2], the system named is PMN. Put plainly: ROS production in PMN (DCFDA, flow cytometry). The text has this:
FIG. 14A-FIG. 14B show the effect of S100A9 on PMN activity. (FIG. 14A) DCFDA measured by flow cytometry in PMN treated with S100A8/A9 or NE. Each dot represents an individual mouse. Mean±SEM are shown. (FIG. 14B) qRT-PCR of Ptges, Ptgs2, and Arg1 expression in mouse PMN treated with S100A8/A9 or NE. Each dot represents an individual mouse. Mean±SEM are shown.

B1: S100A8/A9: recombinant S100A8/A9, heterocomplex of two S100 calcium binding proteins (calprotectin) (protein, UniProt P27005 2-89; P31725 2-113, looked up)
Protein S100-A8: PSELEKALSNLIDVYHNYSNIQGNHHALYKNDFKKMVTTECPQFVQNINIENLFRELDINSDNAINFEEFLAMVIKVGVASHKDSHKE
Protein S100-A9: ANKAPSQMERSITTIIDTFHQYSRKEGHPDTLSKKEFRQMVEAQLATFMKKEKRNEALINDIMEDLDTNQDNQLSFEECMMLMAKLIFACHEKLHENNPRGHGHSHGKGCGK
Take B1: the “expression of Arg1, Ptgs2, or Ptges in PMN” value with PMN [1] is recorded as “little or no effect on expression of Arg1, Ptgs2, or Ptges”. For the same molecule, the “MPO enzymatic activity in PMN” value in the data set on MPO is reported as “activated MPO in PMN”. Further, the “ROS production in PMN” value in the data set on PMN [2] was “no effect on ROS production”.
